Experimental findings from article PMC9523049 are described below.

The target in this assay is Mec1-Ddc2 heterodimer (yeast (endogenous in cultured yeast cells)) (UniProt P38111). The assay is described as follows: cryo-EM structure; Mec1-Ddc2 complex endogenously purified from yeast cells treated with HU (HU-Dimer1, HU-Dimer2) or MMS (MMS-Dimer).

For the substance “Mec1-Ddc2 heterodimer, P38111 1-2368; Q04377 1-747”, the stoichiometry N stood at 2.
